15 substances from patent US20200024330A1 can be followed below.

Assay in all cases: cell-based or functional assay
For experiment [1], the target named is HIV-1 Env of isolate MGRM-AE-002 (HIV-1).
Experiment [2] addresses HIV-1 MGRM-C-004 Env (HIV-1).
In experiment [3] the target is HIV-1 JRCSF envelope glycoprotein (Env) on pseudovirus (HIV-1) (UniProt P20871).
For experiment [4], the target named is HIV-1 MGRM-C-025 Env (HIV-1).
The target of experiment [5] is HIV-1 Env of isolate MGRM-G-017 (subtype G) (HIV-1).
Experiment [6] deals with HIV-1 Env of pseudovirus CAAN.A2 (Acute), clade B (HIV-1).
The target of experiment [7] is HIV-1 Env of isolate MGRM-D-008 (HIV-1).
Experiment [8] has as its target HIV-1 Env of pseudovirus APV_6, clade B (HIV-1).
In experiment [9] the target is HIV-1 IAVI-C18 envelope protein (Env) on pseudovirus (HIV-1).
The target of experiment [10] is HIV-1 Env of isolate MGRM-D-028 (clade D) (HIV-1).
Experiment [11] addresses HIV-1 Env of pseudovirus MGRM-Chronic-B-008, clade B (HIV-1).
The target of experiment [12] is HIV-1 92RW020 envelope glycoprotein (Env) (HIV-1).
In experiment [13] the target is HIV-1 Env of isolate MGRM-D-020 (clade D) (HIV-1).
Experiment [14] has as its target HIV-1 Env of pseudovirus APV_17, clade B (HIV-1).
Experiment [15] concerns the target HIV-1 93MW959 envelope glycoprotein (Env) on pseudovirus (HIV-1).
The target in experiment [16] is HIV-1 Env of isolate 98CN009 (subtype CRF07_BC) (HIV-1).
Experiment [17] addresses HIV-1 Env of isolate MGRM-C-005 (pseudovirus) (HIV-1 isolate MGRM-C-005, subtype C).
Experiment [18] concerns the target HIV-1 Env of isolate MGRM-C-015 (pseudovirus) (HIV-1 isolate MGRM-C-015, subtype C).
The target in experiment [19] is HIV-1 Env of isolate 92UG001 (subtype D) (HIV-1).
In experiment [20] the target is HIV-1 Env of isolate MG RM-D-005 (subtype D) (HIV-1).
The target in experiment [21] is HIV-1 Env of isolate MG RM-D-016 (subtype D) (HIV-1).
The target of experiment [22] is HIV-1 Env of isolate MGRM-C-002 (pseudovirus) (HIV-1 isolate MGRM-C-002, subtype C).
Experiment [23] addresses HIV-1 JRCSF Env (pseudovirus) (HIV-1) (UniProt P20871).
Experiment [24] concerns the target HIV-1 Env of isolate 92UG024 (subtype D) (HIV-1).
Experiment [25] deals with HIV-1 MGRM-Chronic-B-012 Env (pseudovirus) (HIV-1).
The target in experiment [26] is HIV-1 Env of isolate MGRM-C-023 (pseudovirus) (HIV-1 isolate MGRM-C-023, subtype C).
Experiment [27] has as its target HIV-1 Env of isolate MGRM-C-006 (pseudovirus) (HIV-1 isolate MGRM-C-006, subtype C).
The target in experiment [28] is HIV-1 JR-CSF Env D477A (HIV-1 (isolate JR-CSF)) (UniProt P20871).
Experiment [29] concerns the target HIV-1 Env of isolate 93WR029 (HIV-1).
Experiment [30] deals with HIV-1 Env of isolate MGRM-C-026 (HIV-1).
In experiment [31] the target is HIV-1 Env of isolate 92WR020 (HIV-1).
The target of experiment [32] is HIV-1 Env of isolate 93UG077 (HIV-1).
Experiment [33] deals with HIV-1 Env of isolate QH0692.42 (HIV-1).

Sequence of PGT-141 (4964_G22; 4993_K13) (antibody) (VH): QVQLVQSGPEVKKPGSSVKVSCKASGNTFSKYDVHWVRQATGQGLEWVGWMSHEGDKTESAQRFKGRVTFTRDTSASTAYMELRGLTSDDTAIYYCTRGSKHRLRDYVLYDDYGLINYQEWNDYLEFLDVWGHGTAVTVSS
Sequence of PGT-141 (4964_G22; 4993_K13) (antibody) (VL): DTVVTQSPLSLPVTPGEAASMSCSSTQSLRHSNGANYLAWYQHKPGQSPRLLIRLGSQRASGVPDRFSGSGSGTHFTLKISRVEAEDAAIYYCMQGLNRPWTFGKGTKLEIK
Sequence of PGT-143 (4980_N08) (antibody) (VH): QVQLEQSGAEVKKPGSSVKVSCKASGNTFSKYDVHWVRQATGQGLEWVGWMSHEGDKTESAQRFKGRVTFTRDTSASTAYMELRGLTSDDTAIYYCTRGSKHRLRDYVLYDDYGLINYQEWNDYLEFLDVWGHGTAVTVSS
Sequence of PGT-143 (4980_N08) (antibody) (VL): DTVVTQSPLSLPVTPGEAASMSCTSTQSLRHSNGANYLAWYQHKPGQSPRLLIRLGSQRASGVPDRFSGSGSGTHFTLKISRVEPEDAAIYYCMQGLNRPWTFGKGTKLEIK
Sequence of PGT-144 (4970_K22) (antibody) (VH): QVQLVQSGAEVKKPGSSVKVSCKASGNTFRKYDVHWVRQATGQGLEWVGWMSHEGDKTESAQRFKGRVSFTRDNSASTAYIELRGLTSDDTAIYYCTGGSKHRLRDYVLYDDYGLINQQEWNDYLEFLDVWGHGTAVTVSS
Sequence of PGT-144 (4970_K22) (antibody) (VL): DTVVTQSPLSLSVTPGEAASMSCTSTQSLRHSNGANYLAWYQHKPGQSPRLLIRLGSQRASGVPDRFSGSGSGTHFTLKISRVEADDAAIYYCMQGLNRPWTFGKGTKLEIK
Sequence of PGT-142 (4995_E20) (antibody) (VH): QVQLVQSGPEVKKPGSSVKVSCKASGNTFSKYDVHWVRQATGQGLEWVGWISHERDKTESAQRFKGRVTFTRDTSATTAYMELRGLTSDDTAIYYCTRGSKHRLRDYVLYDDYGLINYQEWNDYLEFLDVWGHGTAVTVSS

As to 1496_C09 (PG9) (TCN-109) (antibody), the IC50 (µg/mL), pseudovirus neutralization in experiment [1] came to 0.04 µg/mL; in experiment [7], 11.5 µg/mL. The IC50 (µg/ml), pseudovirus neutralization in [1] was 0.04 µg/mL; in [6] it was 5.67 µg/mL; in [8], 0.12 µg/mL; in [10], 4.39 µg/mL; in experiment [11] it was 6.66 µg/mL; in experiment [12], 0.08 µg/mL. The IC50 (µg/ml), pseudovirus neutralization in [13] turned out to be 2.03 µg/mL; in experiment [14], 14.6 µg/mL; in experiment [15], 0.04 µg/mL. For the same substance, the IC50 in [2] came out at 1.18 µg/mL; in [4], 0.17 µg/mL. Besides, in experiment [3], the IC50 (ug/ml), neutralizing activity was found to be 0.0048 µg/mL. For the same substance, the values for the IC50 neutralization in experiment [3] and in [12] were 0.0048 µg/mL and 0.161 µg/mL, respectively. The substance further gave an IC80, neutralization in [3] of 0.0181 µg/mL. The substance also came in with an IC90, neutralization in [3] of 0.0391 µg/mL. Moreover, in [3], the IC95, neutralization was determined as 0.0798 µg/mL. Besides, the neutralization IC50 in experiment [5] was determined as 0.104 µg/mL; in experiment [9], 0.0535 µg/mL.
On to 4838_L06 (PGT-121) (antibody), for which the IC50 (µg/mL), pseudovirus neutralization in [16] was 0.009 µg/mL; in experiment [19], more than 50 µg/mL; in [20] it was more than 50 µg/mL; in experiment [21], more than 50 µg/mL; in [24] it was more than 50 µg/mL. The IC50 (µg/mL) neutralization came out at 0.015 µg/mL in experiment [17]; 25.1 µg/mL in experiment [18]; 0.019 µg/mL in experiment [22]; 0.017 µg/mL in [26]; 0.017 µg/mL in experiment [27]. The figures for the IC50, pseudovirus neutralization in experiment [23] and in experiment [25] were 0.027 µg/mL and 0.036 µg/mL, respectively. For the same substance, the neutralization IC90 in experiment [23] came to 0.223 µg/mL. This substance also returned a neutralization IC95 in [23] of 0.417 µg/mL.
As for 4858_P08 (PGT-123) (antibody), the IC50 (µg/mL), pseudovirus neutralization in experiment [16] was 0.007 µg/mL; in [19] it was more than 50 µg/mL; in experiment [20], more than 50 µg/mL; in [21] it was more than 50 µg/mL; in experiment [24] it was more than 50 µg/mL. Moreover, the IC50 (µg/mL) neutralization in experiment [17] came out at 0.012 µg/mL; in [18], 13.1 µg/mL; in [22], 0.01 µg/mL; in experiment [26], 0.011 µg/mL; in experiment [27] it was 0.021 µg/mL. This substance returned an IC50 (ug/ml), neutralizing activity in experiment [3] of 0.0423 µg/mL. Further, the results for the IC50, pseudovirus neutralization in experiment [3], in [23] and in [25] were 0.0423 µg/mL, 0.046 µg/mL and 0.227 µg/mL, respectively. Further, in experiment [3], the IC80, pseudovirus neutralization stood at 0.143 µg/mL. The same substance returned an IC90 (pseudovirus neutralization) in experiment [3] of 0.289 µg/mL. For the same substance, the IC95, pseudovirus neutralization in experiment [3] was 0.547 µg/mL. Also, in [28], the Fold IC50 increase relative to wild-type was 2.3 fold.
Turning to 4877_D15 (PGT-122) (antibody), the IC50 (µg/mL), pseudovirus neutralization in experiment [16] was 0.013 µg/mL; in [19], more than 50 µg/mL; in [20] it was more than 50 µg/mL; in experiment [21], more than 50 µg/mL; in [24], more than 50 µg/mL. Moreover, the IC50 (µg/mL) neutralization in experiment [17] is 0.027 µg/mL; in [18], more than 50 µg/mL; in [22], 0.022 µg/mL; in [26] it was 0.027 µg/mL; in experiment [27], 0.018 µg/mL. Further, the IC50 (ug/ml), neutralizing activity in experiment [3] was 0.0727 µg/mL. Further, the IC50, pseudovirus neutralization was found to be 0.057 µg/mL in [23] and 0.066 µg/mL in experiment [25].
For the substance 5123_A06 (PGT-125) (antibody), the IC50 (µg/mL), pseudovirus neutralization in experiment [16] was 0.03 µg/mL; in [19], more than 50 µg/mL; in experiment [20], more than 50 µg/mL; in experiment [21], 0.12 µg/mL; in experiment [24] it was more than 50 µg/mL. The IC50 (µg/mL) neutralization was 2.09 µg/mL in [17]; more than 50 µg/mL in experiment [18]; 0.008 µg/mL in [22]; 1.31 µg/mL in experiment [26]; 0.015 µg/mL in experiment [27]. The IC50 (ug/ml), neutralizing activity in [3] was 0.006 µg/mL. The same substance came in with a neutralization IC50 in experiment [3] of 0.006 µg/mL. In experiment [3], the neutralization IC80 was 0.0196 µg/mL. In experiment [3], this substance had a neutralization IC90 of 0.0392 µg/mL. In experiment [3], this substance registered a neutralization IC95 of 0.0741 µg/mL. In experiment [28], this substance had a Fold IC50 increase relative to wild-type of 3.4 fold. For the same substance, the IC50, pseudovirus neutralization is 0.004 µg/mL in experiment [23] and 0.036 µg/mL in experiment [25].
Consider 5141_B17 (PGT-126) (antibody), for which the IC50 (µg/mL), pseudovirus neutralization in [16] is 0.019 µg/mL; in experiment [19] it was more than 50 µg/mL; in experiment [20] it was 0.792 µg/mL; in [21], more than 50 µg/mL; in experiment [24], more than 50 µg/mL. Besides, the IC50 (µg/mL) neutralization in [17] was 0.298 µg/mL; in experiment [18] it was 3.14 µg/mL; in experiment [22] it was 0.011 µg/mL; in experiment [26], 0.065 µg/mL; in experiment [27], 0.014 µg/mL. The IC50 (ug/ml), neutralizing activity in experiment [3] amounted to 0.0061 µg/mL. This substance returned a Fold IC50 increase relative to wild-type in experiment [28] of 1.1 fold. In experiment [23], the IC50 stood at 0.0061 µg/mL. The figures for the IC50, pseudovirus neutralization in experiment [23] and in experiment [25] were 0.008 µg/mL and 0.027 µg/mL, respectively. Also, the 80% effect concentration (IC80) in experiment [23] was 0.018 µg/mL. This substance gave an IC90 in experiment [23] of 0.0339 µg/mL. The substance also had an IC95 in experiment [23] of 0.0608 µg/mL.
As for 5145_B14 (PGT-127) (antibody), the IC50 (µg/mL), pseudovirus neutralization in experiment [16] is 0.09 µg/mL; in experiment [19] it was more than 50 µg/mL; in [20], 6.02 µg/mL; in experiment [21] it was more than 50 µg/mL; in [24], more than 50 µg/mL. Besides, the IC50 (µg/mL) neutralization in [17] was 0.57 µg/mL; in experiment [18], more than 50 µg/mL; in [22], 0.057 µg/mL; in experiment [26] it was 1.08 µg/mL; in experiment [27], 0.319 µg/mL. For the same substance, in [28], the Fold IC50 increase relative to wild-type is 1.7 fold. For the same substance, the IC50, pseudovirus neutralization turned out to be 0.018 µg/mL in experiment [23] and 0.075 µg/mL in [25].
As to PGT-121 (antibody), the IC50 (µg/mL), pseudovirus neutralization in experiment [1] was more than 50 µg/mL; in experiment [29], more than 50 µg/mL; in [31], 0.004 µg/mL; in [32], 0.019 µg/mL. In addition, the Primary Neutralization Index (B cell culture well 4838 L06) in [30] was 996. The substance further gave a Primary Neutralization Index (B cell culture well 4873 E03) in [30] of 371. Besides, the IC50 neutralization in [12] stood at 0.0063 µg/mL.
Regarding PGT-122 (antibody), the IC50 (µg/mL), pseudovirus neutralization is more than 50 µg/mL in [1], more than 50 µg/mL in experiment [29], 0.009 µg/mL in experiment [31] and 0.084 µg/mL in experiment [32]. This substance also gave an IC50 neutralization in [12] of 0.0072 µg/mL.
In experiment [5], PGT-141 (4964_G22; 4993_K13) (antibody) came in with a neutralization IC50 of 0.164 µg/mL.
Regarding PGT-142 (4995_E20) (antibody), the neutralization IC50 in [5] is 0.125 µg/mL.
Same read-out and setting: then PGT-143 (4980_N08) (antibody), with 0.107 µg/mL.
Still for that read-out and setting: with PGT-144 (4970_K22) (antibody) the figure was 9.97 µg/mL.
On to PGV04 (antibody), for which the IC50 (µg/mL), pseudovirus neutralization was 0.569 µg/mL in [1] and 3.56 µg/mL in experiment [7]. Moreover, the neutralization IC50 in [5] came out at 0.065 µg/mL. In addition, in experiment [32], the IC50 amounted to 0.083 µg/mL.
For the substance VRC01 (antibody), the neutralization IC50 stood at 0.124 µg/mL in [5] and 1.19 µg/mL in experiment [33].
